Data published in publication PMC4134560.

Molecular target: BCL-xLΔC (BCL-xL construct lacking 22 C-terminal residues), Q07817
Sequence (Q07817 1-211, stated change not applied): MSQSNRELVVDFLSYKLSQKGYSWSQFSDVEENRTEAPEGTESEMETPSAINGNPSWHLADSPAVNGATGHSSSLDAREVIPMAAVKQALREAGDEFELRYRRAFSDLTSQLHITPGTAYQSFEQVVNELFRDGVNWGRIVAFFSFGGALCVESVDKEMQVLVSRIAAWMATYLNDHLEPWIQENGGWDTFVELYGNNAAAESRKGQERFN

Kd: 500 nM
Binder: STKKLSECLKRIGDELDSNM (modifications not checked) [BAX BH3 domain peptide]
